# Measured values as given in patent US5981483A, “Compositions comprising modulators of cytokines of the TGF-β superfamily” (Mount Sinai Hospital Corporation, priority 1997, dated 1999).
# Tests used:
# TGF-β1 = molecular target: T1, TGF-β1 (Homo sapiens, UniProt P01137); assay: 3H-Thymidine incorporation in Mv1Lu cells: neutralization of the antiproliferative activity of TGF-β1; assay type: cell-based
# T1 construct: The mature processed cytokines produced from the members of the gene family show almost 100% amino acid identity between species; purchased Collaborative Research (Bedford, Mass.)
# T1 sequence (P01137 279-390 limits assumed): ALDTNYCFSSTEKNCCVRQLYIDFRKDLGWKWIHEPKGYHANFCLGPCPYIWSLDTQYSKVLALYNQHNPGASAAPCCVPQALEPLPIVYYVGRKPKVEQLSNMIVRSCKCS
# Method: Mv1Lu cells were seeded at 20,000 cells/well in a 96 well plate containing 0.2% FCS in α-MEM and incubated with the indicated concentrations of proteins for 18 hr. The cells were then pulsed with 8 μCi/ml methyl-^3 H-thymidine (NEN, Boston, Mass.) for 6 hr. Cells were trypsinized, harvested onto filtermats and counted in a β-Counter. Percent neutralization is defined as incorporation in the presence of 12 pM TGF-β1 alone set at 0%, and incorporation without additions as 100%. The difference in ^3 H-thymidine incorporation between 0% and 100% was 7.5 fold. Each point in FIG. 1 and FIG. 12 represents the mean of duplicate determinations, and the results are representative of three experiments. […] Before use, bovine thyroglobulin was spun twice in a centricon (M.W. cutoff of 10,000 Da) micro-concentrator (Amicon, Beverly, Mass.) to remove any excess Iodine and T3/T4 thyroid hormones.
# Mv1Lu cells = assay: 3H-Thymidine incorporation in Mv1Lu cells: proliferation / growth; assay type: cell-based, mink; settings: absence of cytokines, FIG. 12; read-out: IC50, stimulated proliferation of Mv1Lu cells
# BMP-2 = molecular target: T2, BMP-2 (Homo sapiens, UniProt P12643); assay: BIAcore surface plasmon resonance, binding to immobilized BMP-2; settings: ligand BMP-2
# T2 construct: Genetics Institute, Cambridge, Mass; (gift)
# T2 sequence (P12643 283-396): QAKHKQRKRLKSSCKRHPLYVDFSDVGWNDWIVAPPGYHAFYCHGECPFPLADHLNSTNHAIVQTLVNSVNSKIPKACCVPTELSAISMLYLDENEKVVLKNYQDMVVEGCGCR
# Method: (§1) In this system, a purified protein serving as the ligand is covalently coupled to a carboxymethylated dextran surface, and binding molecules (i.e. the analyte) are passed in a fluid phase across the surface. Binding of the analyte to ligand causes a change in reflected light which is directly proportional to mass bound, and is measured in arbitrary response units (R.U.). Analyte-ligand binding is observed as both increasing response with time during the injection of analyte, and the difference in the position of the baseline before and after injection.
# (§2) Schuster, R. V. Swanson, L. A. Alex, R. B. Bourret, M. I. Simon, Nature 365, 343 (1993). 1000 R.U. equals approximately 1 ng/mm^2. The running buffer was 20 mM Hepes (pH 7.2), 150 mM NaCl and the flow rate for all sensorgrams was 3 μl/min.
# Regeneration of the surface to remove bound analyte was done by injection of 10 μl of 20 mM NaOH. To cyclize TRH1 peptides, the material was reduced with 5 mM DTT then brought to a final concentration of 60 μM in 25 mM ammonium acetate (pH 8.5). After stirring in the dark for 30 min at 20° C. with 30 mM potassium ferricyanide, the peptide was mixed with AG3-X4A resin (BioRad), filtered, lyophilization and desalted on a 50×2.5 cm column of Biogel P2 (Pharmacia) developed in water, and further purified by reverse phase HPLC.
# Injection volumes were 36 μl for FIG. 2, 4 and 5 and 45 μl for FIG. 3. […] Protein concentrations in each experiment were (FIGS. 2 and 3), 2, 5, 10, 20, 30, 40 μM; (FIG. 4), 0.21, 0.31, 0.41, 0.62, 0.82, 1.24 μM; (FIG. 5), 0.22, 0.29, 0.44, 0.59, 0.88 μM. R.U. for the immobilized cytokine in each experiment was 2850 R.U. for FIGS. 2 and 3; 7450 R.U. for FIG. 4, and 5300 R.U., for FIG. 5 respectively.
# Data was analyzed using the BIA-evaluation software (Pharmacia Biosensor). The association rate constant, kass, was calculated by first plotting the change in response with time versus response (i.e. dR/dT vs R). When the slope of the line from this graph is plotted versus analyte concentration (i.e d(dR/dT)/dR vs C), kass is obtained from the slope of the line. The dissociation rate constant, kdiss, is obtained during the decrease in response with time after analyte injection is discontinued. Specifically, kdiss was obtained from the slope of the line in a plot of ln(Rt1 /Rtn) vs time. The affinity constants were calculated from KD =kdiss /kass. Variance for kass is standard error of the linear regression plot, and for kdiss values are the mean ± range of 3 or more independent injections.
# BMP-6 = molecular target: T3, BMP-6 (Homo sapiens, UniProt P22004); assay: BIAcore surface plasmon resonance, binding to immobilized BMP-6; settings: Table 1; ligand BMP-6
# T3 sequence (P22004 375-513): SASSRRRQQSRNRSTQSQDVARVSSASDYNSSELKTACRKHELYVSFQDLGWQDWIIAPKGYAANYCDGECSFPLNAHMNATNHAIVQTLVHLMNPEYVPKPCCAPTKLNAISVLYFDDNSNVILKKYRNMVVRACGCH
# Method: as §1, §2
# Regeneration of the surface to remove bound analyte was done by injection of 10 μl of 20 mM NaOH. To cyclize TRH1 peptides, the material was reduced with 5 mM DTT then brought to a final concentration of 60 μM in 25 mM ammonium acetate (pH 8.5). […]
# Data was analyzed using the BIA-evaluation software (Pharmacia Biosensor). The association rate constant, kass, was calculated by first plotting the change in response with time versus response (i.e. dR/dT vs R). […] The affinity constants were calculated from KD =kdiss /kass. […]
# [1] = Table 2 (calculations repeated)
substance,measurement,setting,value
"Fetuin: Bovine fetal fetuin, glycoprotein obtained by ammonium sulfate fractionation of FCS and gel filtration (Sigma)","Maximal effect, percent neutralization","TGF-β1; 12 pM TGF-β1, FIG. 1",approximately 150%
same,IC50,"TGF-β1; 18 pM human TGF-β1, FIG. 12, read-out: IC50, blocking of anti-proliferative activity of exogenously-added TGF-β1",~3000 nM
same,IC50,Mv1Lu cells,8000 nM
same,kass,BMP-2; Table 1,1700 ± 300 M⁻¹ s⁻¹
same,kass,"BMP-2; Table 1, listed as fetuin",1700 M⁻¹ s⁻¹
same,kdiss,"BMP-2; Table 1, listed as fetuin",6.2e-05 s⁻¹
same,kass,BMP-2; [1],2400 ± 1200 M⁻¹ s⁻¹
same,kdiss,BMP-2; [1],6.5e-05 s⁻¹
same,Kd,"BMP-2; Table 2 (calculations repeated), KD = kdiss/kass",27 nM
same,kass,BMP-6,2900 ± 500 M⁻¹ s⁻¹
